From paper PMC7921663

How the values were obtained:
Conditions in all cases: FA: 50 mM NaCl, 50 mM Tris-HCl pH 8.0, 5 mM DTT, 5 mM MgCl2, room temp, 30 nM FAM substrate, EMSA: 10 mM NaCl, 0.2 mM EDTA, 5 mM b-mercaptoethanol, 0.1% NP-40 …
PARP1 (human) [1] = assay: EMSA
PARP2 (mouse) [2] = assay: EMSA
PARP1 (human) [3] = assay: fluorescence anisotropy
PARP2 (mouse) [4] = assay: fluorescence anisotropy
[5] = AP site at the U of primer S3 (UDG-generated), outward-oriented
[6] = single-nt gap with 5'-dRP at the U of primer S3 (UDG + APE1)
[7] = AP site at the U of primer S1 (UDG-generated), midward-oriented
[8] = single-nt gap with 5'-dRP at the U of primer S3 (UDG + APE1), outward-oriented
[9] = AP site at the U of primer S1 (UDG-generated)
[10] = single-nt gap with 5'-dRP at the U of primer S1 (UDG + APE1)
[11] = AP site at the U of primer S3 (UDG-generated)
[12] = single-nt gap with 5'-dRP at the U of primer S1 (UDG + APE1), midward-oriented

**Q.** Which results are given for AP out-NCP?
**A.** Kd (PARP1 (human) [1]; [5]): 61 nM; Kd (PARP2 (mouse) [2]; [5]): 130 nM; Kd (PARP1 (human) [3]; [5]): 7 nM; Kd (PARP2 (mouse) [4]; [5]): 160 nM

**Q.** Which results are given for gap out-DNA?
**A.** Kd (PARP1 (human) [3]; [6]): 29 nM; Kd (PARP2 (mouse) [4]; [6]): 58 nM

**Q.** With AP mid-NCP as the substance, how does the Kd (PARP1 (human) [3]; [7]) read?
**A.** 12 nM

**Q.** And the Kd (PARP2 (mouse) [4]; [7])?
**A.** 162 nM

**Q.** Which results are given for native out-DNA?
**A.** Kd (PARP1 (human) [3]): 14 nM; Kd (PARP2 (mouse) [4]): 839 nM

**Q.** Which results are given for gap out-NCP?
**A.** Kd (PARP1 (human) [1]; [8]): 38 nM; Kd (PARP2 (mouse) [2]; [8]): 57 nM; Kd (PARP1 (human) [3]; [8]): 10 nM; Kd (PARP2 (mouse) [4]; [8]): 14 nM

**Q.** native mid-NCP was tested. Which Kd (PARP1 (human) [3]) did it give?
**A.** 11 nM

**Q.** And the Kd (PARP2 (mouse) [4])?
**A.** 151 nM

**Q.** native out-NCP was tested. Which Kd (PARP1 (human) [1]) did it give?
**A.** 65 nM

**Q.** And the Kd (PARP2 (mouse) [2])?
**A.** 192 nM

**Q.** And the Kd (PARP1 (human) [3])?
**A.** 14 nM

**Q.** And the Kd (PARP2 (mouse) [4])?
**A.** 156 nM

**Q.** With AP mid-DNA as the substance, how does the Kd (PARP1 (human) [3]; [9]) read?
**A.** 23 nM

**Q.** And the Kd (PARP2 (mouse) [4]; [9])?
**A.** 690 nM

**Q.** Which results are given for gap mid-DNA?
**A.** Kd (PARP1 (human) [3]; [10]): 25 nM; Kd (PARP2 (mouse) [4]; [10]): 145 nM

**Q.** What does the source list for native mid-DNA?
**A.** Kd (PARP1 (human) [3]): 14 nM; Kd (PARP2 (mouse) [4]): 608 nM

**Q.** What does the source list for AP out-DNA?
**A.** Kd (PARP1 (human) [3]; [11]): 23 nM; Kd (PARP2 (mouse) [4]; [11]): 811 nM

**Q.** gap mid-NCP was tested. Which Kd (PARP1 (human) [3]; [12]) did it give?
**A.** 14 nM

**Q.** What about the Kd (PARP2 (mouse) [4]; [12]) of the same substance?
**A.** 128 nM
